T1: amino-terminally FLAG-tagged human p75 (human, UniProt P08138 29-427)
T1 construct: also called FLAG-tagged p75; FLAG-p75; not shown: FLAG tag
T1 sequence: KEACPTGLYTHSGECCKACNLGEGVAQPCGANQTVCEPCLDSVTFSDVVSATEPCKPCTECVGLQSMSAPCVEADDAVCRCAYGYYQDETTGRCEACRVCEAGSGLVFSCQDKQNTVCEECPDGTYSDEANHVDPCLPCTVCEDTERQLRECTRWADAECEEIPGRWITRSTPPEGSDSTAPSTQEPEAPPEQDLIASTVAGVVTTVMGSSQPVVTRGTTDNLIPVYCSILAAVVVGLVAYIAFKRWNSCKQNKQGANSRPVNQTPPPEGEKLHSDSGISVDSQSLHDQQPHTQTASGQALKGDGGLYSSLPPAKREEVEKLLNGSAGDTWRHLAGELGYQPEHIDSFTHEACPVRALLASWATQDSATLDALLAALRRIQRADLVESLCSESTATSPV

T2: Nogo receptor, endogenous in P9 cerebellum (UniProt Q99PI8 27-447)
T2 construct: also called NgR; the Nogo receptor
T2 sequence (looked up): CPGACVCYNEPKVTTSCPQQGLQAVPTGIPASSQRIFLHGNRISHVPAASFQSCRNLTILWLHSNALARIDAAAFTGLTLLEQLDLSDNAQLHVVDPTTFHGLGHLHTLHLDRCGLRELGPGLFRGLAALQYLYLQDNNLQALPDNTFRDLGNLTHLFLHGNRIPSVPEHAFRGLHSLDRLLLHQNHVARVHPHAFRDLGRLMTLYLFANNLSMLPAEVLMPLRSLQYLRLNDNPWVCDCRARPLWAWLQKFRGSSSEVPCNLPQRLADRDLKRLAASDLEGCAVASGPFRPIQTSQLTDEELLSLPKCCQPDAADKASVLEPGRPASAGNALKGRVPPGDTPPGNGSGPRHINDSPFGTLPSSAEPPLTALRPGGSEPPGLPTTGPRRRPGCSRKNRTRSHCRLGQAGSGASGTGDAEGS

B1: recombinant human GST-Rho GDI (other)
chain: MAEQEPTAEQLAQIAAENEEDEHSVNYKPPAQKSIQEIQELDKDDESLRKYKEALLGRVAVSADPNVPNVVVTGLTLVCSSAPGPLELDLTGDLESFKKQSFVLKEGVEYRIKISFRVNREIVSGMKYIQHTYRKGVKIDKTDYMVGSYGPRAEEYEFLTPVEEAPKGMLARGSYSIKSRFTDDDKTDHLSWEWNLTIKKDWKD
notes: Bought (Cytoskeleton); also called recombinant Rho GDI; not shown: glutathione S-transferase (GST) fusion moiety
B2: endogenous p75 of mouse post-natal (P9) cerebellum / cerebellar neurons (receptor, UniProt Q9Z0W1 32-427, looked up)
chain: KETCSTGMYTHSGECCKACNLGEGVAQPCGANQTVCEPCLDSVTFSDVVSATEPCKPCTECLGLQSMSAPCVEADDAVCRCSYGYYQDEETGRCEACSVCGVGSGLVFSCQDKQNTVCEECPEGTYSDEANHVDPCLPCTVCEDTERQLRECTPWADAECEEIPGRWITRSTPPEGSDVTTPSTQEPEAPPERDLIASTVADTVTTVMGSSQPVVTRGTADNLIPVYCSILAAVVVGLVAYIAFKRWNSCKQNKQGANSRPVNQTPPPEGEKLHSDSGISVDSQSLHDQQTHTQTASGQALKGDGNLYSSLPLTKREEVEKLLNGDTWRHLAGELGYQPEHIDSFTHEACPVRALLASWGAQDSATLDALLAALRRIQRADIVESLCSESTATSPV
notes: Endogenous protein in lysates; also called p75NTR
B3: Rho GDI, endogenous in mouse post-natal cerebellar neurons (other, UniProt Q99PT1 2-204, looked up)
chain: AEQEPTAEQLAQIAAENEEDEHSVNYKPPAQKSIQEIQELDKDDESLRKYKEALLGRVAVSADPNVPNVIVTRLTLVCSTAPGPLELDLTGDLESFKKQSFVLKEGVEYRIKISFRVNREIVSGMKYIQHTYRKGVKIDKTDYMVGSYGPRAEEYEFLTPMEEAPKGMLARGSYNIKSRFTDDDKTDHLSWEWNLTIKKEWKD

Assay [1] deals with T1, amino-terminally FLAG-tagged human p75. In words: co-precipitation: p75 precipitated from transfected 293T cells (anti-FLAG, protein A sepharose) incubated with GST-Rho GDI, anti-GST blot.
Method: The resultant precipitates were electrophoretically transferred to polyvinylidene difluoride membranes after SDS/PAGE and were immunoblotted with the anti-GST antibody (Sigma). To examine the nucleotide dependency, GST-RhoA was preloaded with the appropriate nucleotide, and EDTA was replaced with 10 mM MgCl₂.
Assay [2] concerns the target T2, Nogo receptor, endogenous in P9 …. In words: figure legend (FIG. 11C).
Assay [3] concerns the target B2. In words: figure legend (FIG. 6C): co-immunoprecipitation of p75 and Rho GDI from cerebellar neurons.
Method: The lysates were centrifuged at 13,000×g for 20 min, and the supernatants were collected. […] The immunocomplex was collected with protein A sepharose (Amersham Pharmacia). The suspension was centrifuged at 1,000×g for 5 min. The pellets were washed 4 times with lysis buffer, and subjected to SDS-PAGE, followed by immunoblot analysis using anti-Rho GDIα antibody (Sigma) or anti-RhoA antibody (Santa Cruz Biotechnology).

B1: the binding result in assay [1] is reported as “binds”. As to B2, the binding result in assay [2] is given as “binds”. As for B3, the binding result in assay [3] is “binds”.
